Results taken from US20130171174A1 (INDUSTRIAL TECHNOLOGY RESEARCH INSTITUTE, published 2013).

Target: T1, human epidermal growth factor receptor (EGFR) on A431 cells (human, UniProt P00533 25-1210)
T1 construct: whole, on cells; The target is presented on fixed A431 cells
Test: ELISA on fixed A431 cells, anti-human Fc-HRP detection, SigmaPlot fit
Method: A431 cells in a concentration of 4×10⁵ cell/ml were seeded in Corning CellBIND 96-well plate for 16-24 h before assay. After PBS wash, the A431 cells were fixed with BD CytoFix fixation buffer for 15-20 min at room temperature. After fixation and PBS wash procedure, the A431 cells were blocked with StartingBlock blocking buffer for 30 min at 37° C. Plates were washed three times with PBST wash buffer and incubated with the indicated concentrations of dAb-D2-hFc and VH-dAb-D2×4-Ig in 50 ul StartingBlock blocking buffer on ice for 1.5 h. Wells were washed three times with PBST wash buffer. After washing, the plate was incubated with HRP-conjugated anti-human Fc antibody diluted 1:10,000 in StartingBlock blocking buffer on ice for 1 hour. Plates were washed and incubated with TMB. Absorbance at 450 nm was read on a microplate reader.

- Kd: ~6 nM
B1: VH-dAb-D2×4-Ig tetrameric antibody (antibody, V domains shown)
V domain 1: QVQLLESGGGLVQPGGSLRLSCAASGYRFNSEAMGWVRQAPGKGLEWVSSINMRGGSTYYADSVKGRFTISRDNSKNTLYLQMNSLRAEDTAVYYCATVPRSMWWAGLTAKPIRYWGQGTLVTVSS
V domain 2: B1 V domain 1
notes: also called tetravalent antibody; tetravalent fusion protein; not shown: CH1, CH2 and CH3 of human IgG; CL of human IgG
